Laboratory results: patent US20060210536A1 (published 2006)

Molecular target: STAT3 (Homo sapiens (Human), UniProt P40763 1-770)
Assay: FLAG affinity purification from transfected cell lysate, immunoblot with STAT3 antiserum

Chain of STAT3 (P40763 whole entry): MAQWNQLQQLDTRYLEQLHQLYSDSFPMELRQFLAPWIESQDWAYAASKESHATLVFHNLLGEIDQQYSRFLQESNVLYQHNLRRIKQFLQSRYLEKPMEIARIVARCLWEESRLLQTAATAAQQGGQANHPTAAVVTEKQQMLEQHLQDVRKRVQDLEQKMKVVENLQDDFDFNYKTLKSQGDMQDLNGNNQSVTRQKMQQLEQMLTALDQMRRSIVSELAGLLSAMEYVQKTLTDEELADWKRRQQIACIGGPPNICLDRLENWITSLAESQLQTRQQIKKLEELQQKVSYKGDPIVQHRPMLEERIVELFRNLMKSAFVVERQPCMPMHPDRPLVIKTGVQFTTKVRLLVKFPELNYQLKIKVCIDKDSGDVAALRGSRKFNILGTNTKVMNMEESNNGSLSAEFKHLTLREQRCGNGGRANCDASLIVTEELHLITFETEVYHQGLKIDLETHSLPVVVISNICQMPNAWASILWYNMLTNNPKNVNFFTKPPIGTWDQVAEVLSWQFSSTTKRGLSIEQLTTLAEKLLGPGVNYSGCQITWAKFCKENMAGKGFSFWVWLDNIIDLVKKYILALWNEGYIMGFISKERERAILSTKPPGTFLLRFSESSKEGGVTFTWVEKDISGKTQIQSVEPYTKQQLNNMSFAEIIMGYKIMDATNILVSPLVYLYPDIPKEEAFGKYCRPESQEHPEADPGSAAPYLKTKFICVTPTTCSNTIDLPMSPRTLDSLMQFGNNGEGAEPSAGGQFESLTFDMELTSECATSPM

B1: FLAG-tagged SV5 V protein (other)
chain: MDPTDLSFSPDEINKLIETGLNTVEYFTSQQVTGTSSLGKNTIPPGVTGLLTNAAEAKIQESTNHQKGSVGGGAKPKKPRPKIAIVPADDKTVPGKPIPNPLLGLDSTPSTQTVLDLSGKTLPSGSYKGVKLAKFGKENLMTRFIEEPRENPIATSSPIDFKRGRDTGGFHRREYSIGWVGDEVKVTEWCNPSCSPITAAARRFECTCHQCPVTCSECERDT
notes: also called FLAG-SV5 V
Question: Does B1 bind?
Answer: no binding
